Target: T1, myc-tagged MURF1 (muscle-specific ring finger protein 1), full length (human, UniProt Q969Q1-1 1-353)
T1 construct: MURF1 (muscle-specific ring finger protein 1), human, full-length cDNA from bp137 to bp1198 of GenBank NM_032588, printed as aa1-aa354; Cloned into myc-tagged pCMV-Tag3. bp137-bp1198 is 354 codons, which may count the stop codon; source: COS-7 cells, transfected, in lysate (cell line named only for the A168-170 experiment)
Assay: co-IP; GFP-tagged TTN fragment co-transfected with myc-tagged MURF1 (COS-7 cells named for A168-170); IP with anti-myc antibody (Catch and Release v2.0 Reversible Immunoprecipitation System), Western blot with anti-GFP; densitometry normalised to the input amount of GFP-TTN, WT set to 1.00 AU
Conditions: partners not purified

T1 sequence (Q969Q1 whole entry, the tested form may be a part): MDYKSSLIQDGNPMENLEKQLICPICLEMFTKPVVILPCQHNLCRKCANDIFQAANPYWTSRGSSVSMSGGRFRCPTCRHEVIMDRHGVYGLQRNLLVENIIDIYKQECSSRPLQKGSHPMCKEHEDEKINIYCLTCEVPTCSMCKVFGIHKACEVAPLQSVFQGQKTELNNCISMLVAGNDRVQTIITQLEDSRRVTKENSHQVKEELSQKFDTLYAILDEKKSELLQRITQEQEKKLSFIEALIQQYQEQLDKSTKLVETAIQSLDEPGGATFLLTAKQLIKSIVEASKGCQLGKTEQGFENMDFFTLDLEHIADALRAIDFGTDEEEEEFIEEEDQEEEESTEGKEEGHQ

B1: GFP-tagged D30994N-TTN-A168 (titin Ig domain A168 with the HCM-associated mutation D30994N) (domain or fragment, human, UniProt Q8WZ42-11 30928-31021, looked up)
chain: PHFKEELRNLNVRYQSNATLVCKVTGHPKPIVKWYRQGKEIIADGLKYRIQEFKGGYHQLIIASVTNDDATVYQVRATNQGGSVSGTASLEVEV
notes: numbers count on: the protein encoded by GenBank NM_133378; Cloned into pEGFP-C1; the mutation was found in a family with HCM; also called D30994N mutant TTN-A168
  co-precipitated amount relative to WT TTN-A168 (1.00 AU): 3.06 AU

B2: GFP-tagged WT-TTN-A169 (titin Ig domain A169) (domain or fragment, human, UniProt Q8WZ42-11 31022-31119, looked up)
chain: PAKIHLPKTLEGMGAVHALRGEVVSIKIPFSGKPDPVITWQKGQDLIDNNGHYQVIVTRSFTSLVFPNGVERKDAGFYVVCAKNRFGIDQKTVELDVA
notes: numbers count on: the protein encoded by GenBank NM_133378; Cloned into pEGFP-C1; also called A169 domain
  co-precipitated amount relative to WT TTN-A168 (1.00 AU): 6.69 AU

B3: GFP-tagged D30994N-TTN-A168-170 (titin domains A168-A170 with the HCM-associated mutation D30994N) (domain or fragment, human, UniProt Q8WZ42-11 30928-31228, looked up)
chain: PHFKEELRNLNVRYQSNATLVCKVTGHPKPIVKWYRQGKEIIADGLKYRIQEFKGGYHQLIIASVTNDDATVYQVRATNQGGSVSGTASLEVEVPAKIHLPKTLEGMGAVHALRGEVVSIKIPFSGKPDPVITWQKGQDLIDNNGHYQVIVTRSFTSLVFPNGVERKDAGFYVVCAKNRFGIDQKTVELDVADVPDPPRGVKVSDVSRDSVNLTWTEPASDGGSKITNYIVEKCATTAERWLRVGQARETRYTVINLFGKTSYQFRVIAENKFGLSKPSEPSEPTITKEDKTRAMNYDEEV
notes: numbers count on: the protein encoded by GenBank NM_133378; Cloned into pEGFP-C1; the mutation was found in a family with HCM; also called D30994N mutant TTN-A168-170; source: COS-7 cells, transfected, in lysate
  co-precipitated amount relative to WT TTN-A168-170 (1.00 AU): 1.58 AU

B4: GFP-tagged E29783V-TTN-A156 (titin Ig domain A156 with the equivalent of the medaka nsh mutation D23186V) (domain or fragment, human, UniProt Q8WZ42-11 29735-29829, looked up)
chain: LPTIDLSTMPQKTIHVPAGRPVELVIPIAGRPPPAASWFFAGSKLRESVRVTVETHTKVAKLTIRETTIRDTGEYTLELKNVTGTTSETIKVIIL
notes: numbers count on: the protein encoded by GenBank NM_133378; Cloned into pEGFP-C1; mutation made by primer-mediated mutagenesis; also called mutant-TTN-A156; nsh Ig domain
  co-precipitated amount relative to WT TTN-A156 (1.00 AU): 9.23 AU

B5: GFP-tagged S30186A-TTN-A160-161 (titin domains A160-161 with the HCM-associated mutation S30186A) (domain or fragment, human, UniProt Q8WZ42-11 30134-30326, looked up)
chain: PDYELDERYQEGIFVRQGGVIRLTIPIKGKPFPICKWTKEGQDISKRAMIATAETHTELVIKEADRGDSGTYDLVLENKCGKKAVYIKVRVIGSPNSPEGPLEYDDIQVRSVRVSWRPPADDGGADILGYILERREVPKAAWYTIDSRVRGTSLVVKGLKENVEYHFRVSAENQFGISKPLKSEEPVTPKTPL
notes: numbers count on: the protein encoded by GenBank NM_133378; Cloned into pEGFP-C1; the mutation was found in a family with HCM
  co-precipitated amount relative to WT TTN-A160-161 (1.00 AU): 3.11 AU
